1 substance from article PMC6947841 can be followed below.

The target of this assay is anti-TSLP-scFv-Fc-M4 (mutated recombinant antibody) (human). As to the kind of experiment: BLI. Background: In BLI a coated tip is dipped into the sample, and binding shifts an interference pattern.

As to “thymic stromal lymphopoietin (TSLP), standard recombinant human TSLP protein (from UniProt Q969D9 29-159) (ligand)”, the fold change of affinity against scFv-Fc-84 is 10 fold.
